Target: T1, His-OpaR (Vibrio parahaemolyticus BB22OP) (UniProt Q79YV4)
T1 sequence: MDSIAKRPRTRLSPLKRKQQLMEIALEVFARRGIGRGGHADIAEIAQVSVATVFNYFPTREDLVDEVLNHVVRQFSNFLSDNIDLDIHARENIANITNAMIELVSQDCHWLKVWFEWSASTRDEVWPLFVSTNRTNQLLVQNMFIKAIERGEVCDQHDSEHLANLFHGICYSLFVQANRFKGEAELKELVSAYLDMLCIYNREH
Test: EMSA
Settings: 10 mM Tris-HCl pH 7.5, 50 mM NaCl, 1 mM MgCl2, 0.5 mM EDTA, 0.5 mM DTT, 0.05 mg/ml poly d(I-C), 150 ug/ml BSA; temperature not stated

For “CTGTAAGTGAAGAATAATACCGAATGAAGTTTAAAGGCGCTCGAATGAGCGCCTTTTTTATTTGTCATGGAAAACGATAAGAACGAATATGCCGAACATTGAGATCATTCGCTTTAACCACTT (double strand) [araC family (VPBB_A0554) promoter]”, the binding was “no binding”.
